According to paper PMC5484413 (Nature structural & molecular biology, 2016):
Positions count from the first letter of the chain named. In names and notes the source's numbering stands.

T1: GST-NPP-14 (C. elegans, UniProt Q17602 1-1390)
T1 sequence (looked up): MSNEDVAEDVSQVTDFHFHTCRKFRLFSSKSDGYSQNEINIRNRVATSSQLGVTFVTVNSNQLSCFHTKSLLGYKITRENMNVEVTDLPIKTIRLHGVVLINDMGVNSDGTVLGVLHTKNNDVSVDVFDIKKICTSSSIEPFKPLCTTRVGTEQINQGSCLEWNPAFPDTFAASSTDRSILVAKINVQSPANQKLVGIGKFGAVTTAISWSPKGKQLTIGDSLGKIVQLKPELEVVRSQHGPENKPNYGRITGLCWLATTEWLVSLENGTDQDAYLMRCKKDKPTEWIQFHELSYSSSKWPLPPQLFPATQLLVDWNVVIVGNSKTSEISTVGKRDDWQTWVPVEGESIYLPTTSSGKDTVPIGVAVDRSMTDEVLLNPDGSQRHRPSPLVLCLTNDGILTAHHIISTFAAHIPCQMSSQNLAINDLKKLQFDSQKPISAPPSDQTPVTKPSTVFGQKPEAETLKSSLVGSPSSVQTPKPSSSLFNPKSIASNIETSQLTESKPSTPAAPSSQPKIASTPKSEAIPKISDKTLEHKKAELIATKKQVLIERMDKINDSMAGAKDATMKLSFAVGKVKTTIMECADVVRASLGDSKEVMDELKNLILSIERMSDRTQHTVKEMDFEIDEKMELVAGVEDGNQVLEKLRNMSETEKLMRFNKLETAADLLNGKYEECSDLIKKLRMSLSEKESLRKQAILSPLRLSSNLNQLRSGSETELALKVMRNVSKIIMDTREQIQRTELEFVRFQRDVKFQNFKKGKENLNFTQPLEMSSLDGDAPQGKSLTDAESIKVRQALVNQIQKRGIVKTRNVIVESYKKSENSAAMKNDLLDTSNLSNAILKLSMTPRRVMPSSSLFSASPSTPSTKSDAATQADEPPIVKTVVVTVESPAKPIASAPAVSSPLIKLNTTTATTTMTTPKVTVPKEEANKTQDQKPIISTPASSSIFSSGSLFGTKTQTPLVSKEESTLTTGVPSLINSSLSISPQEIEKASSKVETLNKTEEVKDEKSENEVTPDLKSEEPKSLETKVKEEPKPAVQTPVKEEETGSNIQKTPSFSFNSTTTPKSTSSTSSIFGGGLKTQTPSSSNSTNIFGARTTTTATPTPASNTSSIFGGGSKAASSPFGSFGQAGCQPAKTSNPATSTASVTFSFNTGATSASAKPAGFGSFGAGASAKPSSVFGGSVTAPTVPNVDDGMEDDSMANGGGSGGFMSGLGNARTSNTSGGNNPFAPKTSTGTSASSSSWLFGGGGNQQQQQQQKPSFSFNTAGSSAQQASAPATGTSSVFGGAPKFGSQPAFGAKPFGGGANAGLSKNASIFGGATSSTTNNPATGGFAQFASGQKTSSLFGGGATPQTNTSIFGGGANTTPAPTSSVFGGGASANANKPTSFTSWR

B1: CED-3(1-220)-His6 (wild-type) (domain or fragment, C. elegans, UniProt P42573 1-220, looked up)
chain: MMRQDRRSLLERNIMMFSSHLKVDEILEVLIAKQVLNSDNGDMINSCGTVREKRREIVKAVQRRGDVAFDAFYDALRSTGHEGLAEVLEPLARSVDSNAVEFECPMSPASHRRSRALSPAGYTSPTRVHRDSVSSVSSFTSYQDIYSRARSRSRSRALHSSDRHNYSSPPVNAFPSQPSSANSSFTGCSSLGYSSSRNRSFSKASGPTQYIFHEEDMNFV
B2: CED-3(1-220)-His6 L27F (domain or fragment, C. elegans, UniProt P42573 1-220, looked up)
chain: B1 chain with L27F
B3: CED-3(1-220)-His6 G65R (domain or fragment, C. elegans, UniProt P42573 1-220, looked up)
chain: B1 chain with G65R
B4: CED-3(1-220)-His6 L30F (domain or fragment, C. elegans, UniProt P42573 1-220, looked up)
chain: B1 chain with L30F

biological target: T1, GST-NPP-14; test: pull-down

| binding result | Binder |
| --- | --- |
| binds | B1 |
| binds | B2 |
| binds | B3 |
| binds | B4 |
